Experimental data taken from paper PMC3391290.

Legend:
[1] = molecular target: TSHR-LHR-6 chimeric receptor; assay: radioligand binding; membrane preparations of TSHR wild type, mutants and constructs, 125I-hTSH with increasing unlabelled hTSH; with NMIgG (control) (Table 5)
[2] = molecular target: TSHR-LHR-6 chimeric receptor; assay: radioligand binding; membrane preparations of TSHR wild type, mutants and constructs, 125I-hTSH with increasing unlabelled hTSH; with MAb 311.87 (134 nM) (Table 5)

Sequence of human thyroid stimulating hormone (hTSH) (P01215 25-116): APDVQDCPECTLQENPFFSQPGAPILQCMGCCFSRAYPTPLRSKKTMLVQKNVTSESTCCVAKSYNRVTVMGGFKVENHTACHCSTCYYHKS
Sequence of human thyroid stimulating hormone (hTSH) (P01222 21-132): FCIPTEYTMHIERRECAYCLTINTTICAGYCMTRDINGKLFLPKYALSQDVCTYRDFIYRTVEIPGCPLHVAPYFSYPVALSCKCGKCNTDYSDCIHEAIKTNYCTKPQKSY

Kd [1]: 0.27 nM | Kd with MAb 311.87 [2]: 0.39 nM
Substance: human thyroid stimulating hormone (hTSH) (from UniProt P01215 25-116; P01222 21-132) (ligand)
